Paper PMC13371181, “A paracrine-to-autocrine shunt of GREM1 fuels colorectal cancer metastasis via ACVR1C” (Molecular Cancer, 2026)
Residue numbers refer to the chain shown, from its start. Names and notes keep the numbering of the source. “Also recorded” adds a separate entry of the source.

What was measured:
FGFR1 (Homo sapiens) = FGFR1 (Homo sapiens) (UniProt P11362); conditions: cited from earlier work
ACVR1C-ECD = assay: MST binding of ACVR1C-ECD-Fc to GREM1-His or ACTIVIN B-His; parameters: species or system human; conditions: Monolith NT.115, ACVR1C-ECD-Fc 0–27.5 µM vs 50 nM red-fluorescently labeled His-protein, PBS pH 7.4, premium capillaries, n = 3 independent experiments, mean ± s.e.m.
From the text: Expi293F cells were transfected with a pcDNA3.4-ACVR1C-ECD-Fc and pcDNA3.4-ACVR1C-ECD-Fc-double mutant (E85A/T101A) expression vector to produce the target protein, which was subsequently purified using a Protein G column. Briefly, the coding sequence (CDS) of the human ACVR1C extracellular domain (ACVR1C-ECD, NM_145259.3, residues 1–113) fused to an Fc tag was cloned into the pcDNA3.4 vector. Expi293F cells were transfected with this construct, the supernatant was harvested 5 days post transfection.
MST was carried out on a Monolith NT.115 instrument (NanoTemper Technologies GmbH, MO-L011). To evaluate ACVR1C-ECD or ACVR1C peptide or ACVR1C-ECD-double mutant (E85A/T101A) binding to GREM1-His or ACTIVIN B-His, an increasing concentration of purified ACVR1C-ECD-Fc protein (0–27.5 µM) or ACVR1C peptide (0–2.3 µM) or ACVR1C-ECD-double mutant (0–27.5 µM) was incubated with 50 nM red-fluorescently labeled (NanoTemper Technologies GmbH, MO-L011) GREM1-His protein (R&D, 5190-GR) or ACTIVIN B-His protein (SinoBiological, 10814-H08H). Experiments were carried out in a PBS buffer pH 7.4 using premium capillaries (NanoTemper Technologies GmbH, MO-K025).

[1] = target: T1, His-tagged full-length GREM1 (recombinant human GREM1-His) (human, UniProt O60565 25-184, red fluorescent label (NanoTemper, MO-L011) in the MST assays); assay: MST; Monolith NT.115; 50 nM red-fluorescently labelled GREM1-His or ACTIVIN B-His, unlabelled partner titrated (ACVR1C-ECD-Fc or double mutant 0–27.5 µM, ACVR1C peptide 0–2.3 µM); PBS pH 7.4; n = 3; conditions: both partners purified
T1 construct: also called recombinant GREM1; rhGREM1; source: bought: R&D, 5190-GR
T1 sequence (looked up): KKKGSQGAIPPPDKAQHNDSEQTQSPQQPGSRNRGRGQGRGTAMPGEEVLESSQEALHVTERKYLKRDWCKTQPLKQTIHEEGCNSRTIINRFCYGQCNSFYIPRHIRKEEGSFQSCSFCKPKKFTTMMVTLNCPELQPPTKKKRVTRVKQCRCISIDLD

ACTIVIN B-His = ACTIVIN B-His (UniProt P09529); assay: as above
ACVR1C = assay: Co-immunoprecipitation of GREM1 and ACVR1C; type: binding, human; conditions: co-IP, truncation or point mutants, HCT116 cells
Procedure: HCT116 cells were transfected with the indicated plasmids and lysed in NP40 lysis buffer (Beyotime, P0013F) supplemented with protease inhibitor cocktail (Thermo, 78446). Lysates were incubated with the indicated Anti-Flag nanobody magarose beads (Ktsm-life, KTSM1338), Anti-HA nanobody magarose beads (Ktsm-life, KTSM1335) or Anti-GFP nanobody magarose beads (Ktsm-life, KTSM1334) overnight at 4 °C. The protein complex was washed four times with the NP40 lysis buffer, eluted with 1×loading buffer (Beyotime, P0015) by boiling for 5 min, followed by mass spectrometry and immunoblotting with the indicated antibodies.
Protein was extracted from the cells with RIPA buffer (Beyotime, P0018) or NP40 lysis buffer (Beyotime, P0013F) and separated by SDS-PAGE, and transferred to polyvinylidene difluoride membranes. Primary antibodies against GREM1 (1:1,000, SinoBiological, 50016-R117), ACVR1C (1:1,000, Thermo, PA587475), Flag-tag (1:1,000, CST, 14793), HA-tag (1:1,000, CST, 3724), E-Cadherin (1:1,000, CST, 3195), β-Catenin (1:1,000, CST, 8480), ZEB1 (1:1,000, CST, 3396), Snail (1:1,000, CST, 3879), SMAD2/3 (1:1,000, CST, 8685), p-SMAD2/3 (1:1,000, CST, 8828), SMAD1 (1:1,000, CST, 6944), p-SMAD1/5/9 (1:1,000, CST, 13820), TGFβ (1:1,000, CST, 3709), TGFβR1 (0.3 µg/mL, R&D, AF3025), β-actin (1:5,000, Beyotime, AF0003) and GAPDH (1:5,000, Beyotime, AF0006) were used in this study. Peroxidase-conjugated secondary antibody (1:10,000, Cell Signaling Technology, 7074, 7076) was used and signal was visualized using an enhanced chemiluminescence assay (ECL, Thermo), according to the manufacturer’s protocol. Band intensity was quantified using Fiji (ImageJ) by grayscale analysis.

[2] = test system: CRC cells (SW480, HCT116, and MC38); assay: GREM1 withdrawal assay, RT–qPCR and immunoblot; type: cell-based, human (SW480, mouse (MC38); conditions: rhGREM1 or rmGrem1 200 ng/mL 24 h, then GREM1-free medium 2 and 4 days
Procedure: To determine whether tumor cells that have acquired signaling autonomy can sustain GREM1 expression in the absence of external stimulation, we performed a GREM1 withdrawal assay. CRC cells (SW480, HCT116, and MC38) were first pulsed with rhGREM1 or recombinant mouse GREM1 (rmGrem1) for 24 h to initiate the signaling response. The medium containing rhGREM1 or rmGrem1 was then thoroughly removed, replaced with fresh GREM1-free medium, and the cells were cultured for an additional 4 days. […] This persistent, self-sustaining expression supports our conclusion that the initial rhGREM1 or rmGrem1 stimulation triggers a positive feedback loop of GREM1 transcription within CRC cells.
Protein was extracted from the cells with RIPA buffer (Beyotime, P0018) or NP40 lysis buffer (Beyotime, P0013F) and separated by SDS-PAGE, and transferred to polyvinylidene difluoride membranes. […] Band intensity was quantified using Fiji (ImageJ) by grayscale analysis.
Total RNA was extracted using Trizol reagent (Invitrogen, 15596026). […] The SYBR Green Premix Pro Taq HS qPCR Kit (Accurate Biology, AG11701) was then used to quantify mRNA expression according to the manufacturer’s instructions. All results were calculated using the 2^−ΔΔCt method. […]

Sequence of FGFR1 (Homo sapiens) (P11362 22-376): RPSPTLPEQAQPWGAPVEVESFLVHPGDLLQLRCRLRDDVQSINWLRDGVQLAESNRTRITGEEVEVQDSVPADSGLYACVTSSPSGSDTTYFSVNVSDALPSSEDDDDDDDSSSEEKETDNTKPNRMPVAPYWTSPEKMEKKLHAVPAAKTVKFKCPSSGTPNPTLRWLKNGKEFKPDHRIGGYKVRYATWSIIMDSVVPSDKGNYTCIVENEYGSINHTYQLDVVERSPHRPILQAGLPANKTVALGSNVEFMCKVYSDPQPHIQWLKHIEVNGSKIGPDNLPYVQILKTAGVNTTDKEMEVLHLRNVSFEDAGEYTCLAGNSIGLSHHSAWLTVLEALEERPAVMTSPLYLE

## GREM1 (from UniProt O60565)
FGFR1 (Homo sapiens)
  Kd: 10.6 nM

## ACTIVIN B: a known ligand of ACVR1C; ACTIVIN B-His protein (SinoBiological, 10814-H08H)
ACVR1C-ECD
  Kd: 854 ± 127 nM

B1: Fc-tagged ACVR1C extracellular domain (ACVR1C-ECD, AA1–113) (Fc fusion, human, UniProt Q8NER5-1 21-113, looked up)
chain: ELSPGLKCVCLLCDSSNFTCQTEGACWASVMLTNGKEQVIKSCVSLPELNAQVFCHSSNNVTKTECCFTDFCNNITLHLPTASPNAPKLGPME
notes: signal peptide in the construct; Vector pcDNA3.4; also called ACVR1C-ECD-Fc; recombinant human ACVR1C-ECD and Fc chimera protein; source: Expi293F, transfected, purified from supernatant (Protein G column, ion exchange)
[1]
  Kd: 67.7 nM
ACTIVIN B-His
  Kd: 854 nM

B2: Q101A/T102A/T112A/N115A quadruple mutation in GREM1: GREM1 point mutant (protein)
chain: T1 sequence (looked up) with Q77A, T78A, T88A, N91A
modifications: left off: HA, end not stated, state not stated | mCherry, end not stated, state not stated
notes: GREM1 point mutant
ACVR1C
  effect of deletion or mutation on GREM1–ACVR1C interaction: significantly abrogated the GREM1–ACVR1C interaction
ACVR1C; listed as AA101/102/112/115 mutant (M3) of GREM1
  effect of deletion or mutation on GREM1–ACVR1C interaction: impaired

B3: rmGrem1: recombinant mouse GREM1 (protein, UniProt O70326 25-184, looked up)
Gremlin-1: T1 sequence (looked up) with Q27P, N33T
[2]
  endogenous GREM1 expression after withdrawal: not only maintained but in some cases further increased even after the withdrawal of exogenous GREM1; also recorded: maintained elevated endogenous GREM1 expression even after withdrawal of exogenous GREM1

B4: E85A: ACVR1C single mutant (protein, UniProt Q8NER5 21-493, looked up, variant E85A)
Activin receptor type-1C: ELSPGLKCVCLLCDSSNFTCQTEGACWASVMLTNGKEQVIKSCVSLPELNAQVFCHSSNNVTKTACCFTDFCNNITLHLPTASPNAPKLGPMELAIIITVPVCLLSIAAMLTVWACQGRQCSYRKKKRPNVEEPLSECNLVNAGKTLKDLIYDVTASGSGSGLPLLVQRTIARTIVLQEIVGKGRFGEVWHGRWCGEDVAVKIFSSRDERSWFREAEIYQTVMLRHENILGFIAADNKDNGTWTQLWLVSEYHEQGSLYDYLNRNIVTVAGMIKLALSIASGLAHLHMEIVGTQGKPAIAHRDIKSKNILVKKCETCAIADLGLAVKHDSILNTIDIPQNPKVGTKRYMAPEMLDDTMNVNIFESFKRADIYSVGLVYWEIARRCSVGGIVEEYQLPYYDMVPSDPSIEEMRKVVCDQKFRPSIPNQWQSCEALRVMGRIMRECWYANGAARLTALRIKKTISQLCVKEDCKA
ACVR1C
  effect of deletion or mutation on GREM1–ACVR1C interaction: significantly abrogated the GREM1–ACVR1C interaction
ACVR1C; listed as AA85 mutant (M2)
  effect of deletion or mutation on GREM1–ACVR1C interaction: impaired

B5: T101A: ACVR1C single mutant (protein)
chain: B4 Activin receptor type-1C with A65E, T81A
modifications: left off: Flag, end not stated, state not stated | GFP, end not stated, state not stated
notes: ACVR1C single mutant
ACVR1C
  effect of deletion or mutation on GREM1–ACVR1C interaction: significantly abrogated the GREM1–ACVR1C interaction
ACVR1C; listed as AA101 mutant (M3) of ACVR1C
  effect of deletion or mutation on GREM1–ACVR1C interaction: impaired

## TECCFTDFCNNITLHLPTA (peptide, UniProt Q8NER5 84-102, looked up, ACVR1C, human, residues 84–102) [ACVR1C peptide (amino acid residues 84–102 of ACVR1C)]
[1]
  Kd: 92.3 nM
